Source: patent US20260242478A1 (published 2026)
Where no end group is shown, it is not given here.

B1: Phage-2718 (peptide)
peptide: TQKWCIPAWMCAER
modifications: cysteine pairing not given here; also: displayed on bacteriophage as fusion to pIII, linker not given here
B2: Phage-2715 (peptide)
peptide: VYKWCTPSWMCADP
modifications: cysteine pairing not given here; also: displayed on bacteriophage as fusion to pIII, linker not given here
B3: Phage-2707 (peptide)
peptide: DHKWCTPPWMCAAD
modifications: cysteine pairing not given here; also: displayed on bacteriophage as fusion to pIII
B4: Phage-2716 (peptide)
peptide: VANWCTPKWMCEHV
modifications: cysteine pairing not given here; also: displayed on bacteriophage as fusion to pIII, linker not given here
B5: Phage-2703 (peptide)
peptide: TIKWCTPSWMCAEI
modifications: cysteine pairing not given here; also: displayed on bacteriophage as fusion to pIII
B6: Phage-2720 (peptide)
peptide: DWKWCTPSWMCAQK
modifications: cysteine pairing not given here; also: displayed on bacteriophage as fusion to pIII, linker not given here
B7: Phage-2714 (peptide)
peptide: HEKWCVPSWMCDDW
modifications: cysteine pairing not given here; also: displayed on bacteriophage as fusion to pIII, linker not given here
B8: Phage-2712 (peptide)
peptide: WENWCRPSWMCEDT
modifications: cysteine pairing not given here; also: displayed on bacteriophage as fusion to pIII, linker not given here
B9: Phage-2704 (peptide)
peptide: VGNWCIPLWMCAAE
modifications: cysteine pairing not given here; also: displayed on bacteriophage as fusion to pIII
B10: Phage-2710 (peptide)
peptide: SVKWCTPPWMCTGL
modifications: cysteine pairing not given here; also: displayed on bacteriophage as fusion to pIII, linker not given here
B11: Phage-2713 (peptide)
peptide: NTHWCTPSWMCSAW
modifications: cysteine pairing not given here; also: displayed on bacteriophage as fusion to pIII, linker not given here
B12: Phage-2711 (peptide)
peptide: NVSMCIPNWMCVGL
modifications: cysteine pairing not given here; also: displayed on bacteriophage as fusion to pIII, linker not given here
B13: Phage-2717 (peptide)
peptide: EYTWCKPAWMCDGV
modifications: cysteine pairing not given here; also: displayed on bacteriophage as fusion to pIII, linker not given here
B14: Phage-2719 (peptide)
peptide: DMHWCTPQWMCAPL
modifications: cysteine pairing not given here; also: displayed on bacteriophage as fusion to pIII, linker not given here

What was measured:
PSMA Fab (006 PSMA Fab) [1] = biological target: T1, PSMA Fab (006 PSMA Fab); experiment: clonal phage ELISA; biotinylated PSMA Fab on neutravidin plate, blocking buffer alone, anti-M13-HRP detection;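 further: crude clonal phage supernatants added without washing to wells preincubated with PSMA antigen or with blocking buffer alone, briefly incubated, then washed before bound phage detection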
T1 construct: also called Anti-PSMA Fab; anti-PSMA Fab
Description: (§1) Clonal phage were harvested as crude supernatants and screened via standard ELISAs. […] Prior to the addition of clonal phage. wells were incubated with blocking buffer and PSMA antigen or blocking buffer alone. Without washing or aspirating, clonal phage supernatants were then added to the wells and incubated for a short time. Wells were then washed followed by detection of bound phage using a horse radish conjugated anti-M13 antibody.

PSMA Fab (006 PSMA Fab) [2] = biological target: T1, PSMA Fab (006 PSMA Fab); experiment: clonal phage ELISA; biotinylated PSMA Fab on neutravidin plate, wells pre-incubated with PSMA antigen (competitor), anti-M13-HRP detection
Description: as §1

006 PSMA Fab [3] = biological target: T2, 006 PSMA Fab; experiment: phage binding ELISA; biotinylated PSMA Fab on neutravidin plate, clonal phage supernatant, anti-M13 HRP detection; blocking buffer alone;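 further: before phage were added, wells were preincubated with blocking buffer either containing PSMA antigen or without it, and phage were then added with no wash in between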
T2 construct: also called Anti-PSMA Fab
Description: as §1

006 PSMA Fab [4] = biological target: T2, 006 PSMA Fab; experiment: phage binding ELISA; biotinylated PSMA Fab on neutravidin plate pre-incubated with PSMA antigen as competitor, clonal phage supernatant, anti-M13 HRP detection
Description: as §1

[5] = biological target: PSMA Fab (anti-PSMA Fab; 006 PSMA Fab); experiment: phage binding ELISA on captured PSMA Fab; wells first incubated with PSMA antigen as competitor; anti-M13 HRP detection
Description: as §1

[6] = biological target: PSMA Fab (anti-PSMA Fab; 006 PSMA Fab); experiment: phage binding ELISA; clonal phage supernatant on biotinylated PSMA Fab captured on neutravidin plate; anti-M13 HRP detection
Description: as §1

| Binder | Phage binding ELISA signal, Anti-PSMA Fab (PSMA Fab (006 PSMA Fab) [1]) | Phage binding ELISA signal, Anti-PSMA Fab in presence of PSMA antigen (PSMA Fab (006 PSMA Fab) [2]) | Phage binding ELISA signal, Anti-PSMA Fab (006 PSMA Fab [3]) | Phage binding ELISA signal, Anti-PSMA Fab with PSMA antigen (006 PSMA Fab [4]) | further results |
| --- | --- | --- | --- | --- | --- |
| B1 | 0.774 | 0.0702 | – | – | – |
| NVKWCVPHWMCEVS [Phage-2721] | 0.765 | 0.0649 | – | – | – |
| FVKWCTPSWMCESQ [Phage-2697] | – | – | 0.828 | 0.0785 | – |
| B2 | 0.779 | 0.0676 | – | – | – |
| PDNWCIPAWMCERF [Phage-2709] | – | – | 0.793 | 0.0679 | – |
| EWKWCTPPWMCTTN [Phage-2724] | 0.752 | 0.0835 | – | – | – |
| DYKWCTPMWMCEVV [Phage-2723] | 0.753 | 0.0761 | – | – | – |
| VSNWCKPAWMCGTT [Phage-2731 (Peptide-180 library clone)] | – | – | – | – | Phage binding ELISA signal, Anti-PSMA Fab with PSMA antigen [5]: 0.079; Phage binding ELISA signal, Anti-PSMA Fab [6]: 0.733 |
| B3 | – | – | 0.797 | 0.0877 | – |
| GSHWCEPLWMCSAF [Phage-2699] | – | – | 0.824 | 0.0853 | – |
| IEKWCTPPWMCESS [Phage-2700] | – | – | 0.824 | 0.104 | – |
| DQKWCIPLWMCETR [Phage-2722] | 0.762 | 0.0727 | – | – | – |
| DNMLCRPSWMCEGL [Phage-2701] | – | – | 0.816 | 0.0762 | – |
| WQKWCTPMWMCEAT [Phage-2727 (Peptide-180 library clone)] | – | – | – | – | Phage binding ELISA signal, Anti-PSMA Fab with PSMA antigen [5]: 0.0785; Phage binding ELISA signal, Anti-PSMA Fab [6]: 0.744 |
| MDRWCTPAWMCEVH [Phage-2708] | – | – | 0.794 | 0.0734 | – |
| LYNRCTPAWMCTGF [Phage-2729 (Peptide-180 library clone)] | – | – | – | – | Phage binding ELISA signal, Anti-PSMA Fab with PSMA antigen [5]: 0.0657; Phage binding ELISA signal, Anti-PSMA Fab [6]: 0.738 |
| B4 | 0.777 | 0.0631 | – | – | – |
| MEKMCTPQWMCDMW [Phage-2725 (Peptide-180 library clone)] | – | – | – | – | Phage binding ELISA signal, Anti-PSMA Fab with PSMA antigen [5]: 0.0732; Phage binding ELISA signal, Anti-PSMA Fab [6]: 0.749 |

| Binder | Phage binding ELISA signal, Anti-PSMA Fab (PSMA Fab (006 PSMA Fab) [1]) | Phage binding ELISA signal, Anti-PSMA Fab in presence of PSMA antigen (PSMA Fab (006 PSMA Fab) [2]) | Phage binding ELISA signal, Anti-PSMA Fab (006 PSMA Fab [3]) | Phage binding ELISA signal, Anti-PSMA Fab with PSMA antigen (006 PSMA Fab [4]) | further results |
| --- | --- | --- | --- | --- | --- |
| QVPWCTPAWMCERA [Phage-2702] | – | – | 0.814 | 0.126 | – |
| EQMWCTPAWMCTGF [Phage-2705] | – | – | 0.81 | 0.0782 | – |
| VNPSCTPSWMCLGL [Phage-2728 (Peptide-180 library clone)] | – | – | – | – | Phage binding ELISA signal, Anti-PSMA Fab with PSMA antigen [5]: 0.0793; Phage binding ELISA signal, Anti-PSMA Fab [6]: 0.739 |
| B5 | – | – | 0.811 | 0.105 | – |
| B6 | 0.769 | 0.0639 | – | – | – |
| EEMWCIPVWMCEHQ [Phage-2696] | – | – | 0.829 | 0.0935 | – |
| B7 | 0.784 | 0.0669 | – | – | – |
| B8 | 0.79 | 0.0568 | – | – | – |
| DNKMCIPVWMCERF [Phage-2698] | – | – | 0.824 | 0.0685 | – |
| B9 | – | – | 0.81 | 0.0867 | – |
| B10 | 0.792 | 0.0767 | – | – | – |
| B11 | 0.789 | 0.0816 | – | – | – |
| INKWCTPAWMCDLS [Phage-2726 (Peptide-180 library clone)] | – | – | – | – | Phage binding ELISA signal, Anti-PSMA Fab with PSMA antigen [5]: 0.0937; Phage binding ELISA signal, Anti-PSMA Fab [6]: 0.747 |
| B12 | 0.791 | 0.0891 | – | – | – |
| EMKWCKPEWMCPWM [Phage-2730 (Peptide-180 library clone)] | – | – | – | – | Phage binding ELISA signal, Anti-PSMA Fab with PSMA antigen [5]: 0.0688; Phage binding ELISA signal, Anti-PSMA Fab [6]: 0.733 |
| B13 | 0.774 | 0.0742 | – | – | – |
| B14 | 0.771 | 0.0856 | – | – | – |
| DYKWCTPPWMCYSA [Phage-2706] | – | – | 0.804 | 0.0621 | – |
